Experiment [1] has as its target antibody C1, specific for the CRP-derived 8-mer PET sequence YEVQGEVF
Put plainly: peptide competition ELISA; soluble peptide competes with coated target peptide for C1. On the technique in general: ELISA stands for enzyme-linked immunosorbent assay.

For experiment [2] the target is unchanged. Put plainly: peptide competition ELISA.
Experiment [3] deals with antibody P1, specific for the PSA-derived 8-mer PET sequence EPAELTDA
Put plainly: peptide competition ELISA; soluble peptide competes with coated target peptide for P1.

Experiment [4] shares this target. Put plainly: peptide competition ELISA.

Where no end group is shown, it is not given here. A value given as a limit tells only on which side of the number the result lay.

B1: nearest-neighbor 8-mer peptide VEVNGEVF (peptide)
peptide: VEVNGEVF
For the molecule B1, the IC50 (in general, the concentration that gives 50% inhibition) in experiment [1] was greater than 1000 µM. The molecule also came in with a fold higher concentration without effect, against the antigen PET YEVQGEVF in experiment [2] greater than 1000 fold.

B2: nearest-neighbor 8-mer peptide DPTQLTDA (peptide)
peptide: DPTQLTDA
Consider B2, for which the IC50 in experiment [3] is greater than 1000 µM. The molecule further gave a fold higher concentration without effect, against the antigen PET EPAELTDA in experiment [4] of 25000 fold.

B3: nearest-neighbor 8-mer peptide YEVLGEEF (peptide)
peptide: YEVLGEEF
Molecule B3 came in with an IC50 in experiment [1] greater than 1000 µM. Besides, the fold higher concentration without effect, against the antigen PET YEVQGEVF in experiment [2] was greater than 1000 fold.

B4: CRP-derived 8-mer PET peptide YEVQGEVF (peptide)
peptide: YEVQGEVF
On to B4, for which the IC50 in experiment [1] was 1 µM.

B5: PSA-derived 8-mer PET peptide EPAELTDA (peptide)
peptide: EPAELTDA
modifications: not fully specified
With B5, the IC50 in experiment [3] came out at 0.04 µM.

B6: nearest-neighbor 8-mer peptide EPVELTSA (peptide)
peptide: EPVELTSA
In the case of B6, the IC50 in experiment [3] is greater than 1000 µM. This molecule also had a fold higher concentration without effect, against the antigen PET EPAELTDA in experiment [4] of 25000 fold.
